Source: publication PMC2974046

Experiments:
Assay in all cases: purified protein
[1] = test system: NC(=O)/C=C/C(=O)NC[C@H](N)C(=O)O; assay type: biochemical, Pantoea agglomerans; details: adenylation (A) domain, ATP, Mg2+, pH 7.5, room temperature
[2] = test system: NC(=O)[C@@H]1O[C@H]1C(=O)NC[C@H](N)C(=O)O; details: 5 mM L-valine, 10 mM ATP, 12 mM MgCl2, HEPES pH 8, room temperature
[3] = test system: NC(=O)/C=C/C(=O)NC[C@H](N)C(=O)O; details: 5 mM L-valine, 10 mM ATP, 12 mM MgCl2, HEPES pH 8, room temperature

## DdaD (Pantoea agglomerans)
[1]
  Km: 420 ± 80 µM
  kcat: 1.07 ± 0.083 s⁻¹

## DdaF (Pantoea agglomerans)
[2]
  Km: 53 ± 7 µM
  kcat: 3.02 ± 0.117 s⁻¹
  kcat/Km: 56700 M⁻¹ s⁻¹
[3]
  Km: 72 ± 34 µM
  kcat: 0.35 ± 0.05 s⁻¹
  kcat/Km: 4830 M⁻¹ s⁻¹
